Test results: patent US20180119100A1
Each block holds one substance with its values, some of them ahead of it.

Columns and labels:
Assay in all cases: cell-based or functional assay
[1] = target: OX40L expressed on mouse GM-BMDCs (mouse) (UniProt P43488)
[2] = target: Jagged-1 expressed on mouse GM-BMDCs (mouse) (UniProt Q9QXX0)
[3] = target: Notch 3 expressed on mouse T-cells (Tregs) (mouse) (UniProt Q61982)
Sequence of UniProt Q61982 (Q61982 40-2318): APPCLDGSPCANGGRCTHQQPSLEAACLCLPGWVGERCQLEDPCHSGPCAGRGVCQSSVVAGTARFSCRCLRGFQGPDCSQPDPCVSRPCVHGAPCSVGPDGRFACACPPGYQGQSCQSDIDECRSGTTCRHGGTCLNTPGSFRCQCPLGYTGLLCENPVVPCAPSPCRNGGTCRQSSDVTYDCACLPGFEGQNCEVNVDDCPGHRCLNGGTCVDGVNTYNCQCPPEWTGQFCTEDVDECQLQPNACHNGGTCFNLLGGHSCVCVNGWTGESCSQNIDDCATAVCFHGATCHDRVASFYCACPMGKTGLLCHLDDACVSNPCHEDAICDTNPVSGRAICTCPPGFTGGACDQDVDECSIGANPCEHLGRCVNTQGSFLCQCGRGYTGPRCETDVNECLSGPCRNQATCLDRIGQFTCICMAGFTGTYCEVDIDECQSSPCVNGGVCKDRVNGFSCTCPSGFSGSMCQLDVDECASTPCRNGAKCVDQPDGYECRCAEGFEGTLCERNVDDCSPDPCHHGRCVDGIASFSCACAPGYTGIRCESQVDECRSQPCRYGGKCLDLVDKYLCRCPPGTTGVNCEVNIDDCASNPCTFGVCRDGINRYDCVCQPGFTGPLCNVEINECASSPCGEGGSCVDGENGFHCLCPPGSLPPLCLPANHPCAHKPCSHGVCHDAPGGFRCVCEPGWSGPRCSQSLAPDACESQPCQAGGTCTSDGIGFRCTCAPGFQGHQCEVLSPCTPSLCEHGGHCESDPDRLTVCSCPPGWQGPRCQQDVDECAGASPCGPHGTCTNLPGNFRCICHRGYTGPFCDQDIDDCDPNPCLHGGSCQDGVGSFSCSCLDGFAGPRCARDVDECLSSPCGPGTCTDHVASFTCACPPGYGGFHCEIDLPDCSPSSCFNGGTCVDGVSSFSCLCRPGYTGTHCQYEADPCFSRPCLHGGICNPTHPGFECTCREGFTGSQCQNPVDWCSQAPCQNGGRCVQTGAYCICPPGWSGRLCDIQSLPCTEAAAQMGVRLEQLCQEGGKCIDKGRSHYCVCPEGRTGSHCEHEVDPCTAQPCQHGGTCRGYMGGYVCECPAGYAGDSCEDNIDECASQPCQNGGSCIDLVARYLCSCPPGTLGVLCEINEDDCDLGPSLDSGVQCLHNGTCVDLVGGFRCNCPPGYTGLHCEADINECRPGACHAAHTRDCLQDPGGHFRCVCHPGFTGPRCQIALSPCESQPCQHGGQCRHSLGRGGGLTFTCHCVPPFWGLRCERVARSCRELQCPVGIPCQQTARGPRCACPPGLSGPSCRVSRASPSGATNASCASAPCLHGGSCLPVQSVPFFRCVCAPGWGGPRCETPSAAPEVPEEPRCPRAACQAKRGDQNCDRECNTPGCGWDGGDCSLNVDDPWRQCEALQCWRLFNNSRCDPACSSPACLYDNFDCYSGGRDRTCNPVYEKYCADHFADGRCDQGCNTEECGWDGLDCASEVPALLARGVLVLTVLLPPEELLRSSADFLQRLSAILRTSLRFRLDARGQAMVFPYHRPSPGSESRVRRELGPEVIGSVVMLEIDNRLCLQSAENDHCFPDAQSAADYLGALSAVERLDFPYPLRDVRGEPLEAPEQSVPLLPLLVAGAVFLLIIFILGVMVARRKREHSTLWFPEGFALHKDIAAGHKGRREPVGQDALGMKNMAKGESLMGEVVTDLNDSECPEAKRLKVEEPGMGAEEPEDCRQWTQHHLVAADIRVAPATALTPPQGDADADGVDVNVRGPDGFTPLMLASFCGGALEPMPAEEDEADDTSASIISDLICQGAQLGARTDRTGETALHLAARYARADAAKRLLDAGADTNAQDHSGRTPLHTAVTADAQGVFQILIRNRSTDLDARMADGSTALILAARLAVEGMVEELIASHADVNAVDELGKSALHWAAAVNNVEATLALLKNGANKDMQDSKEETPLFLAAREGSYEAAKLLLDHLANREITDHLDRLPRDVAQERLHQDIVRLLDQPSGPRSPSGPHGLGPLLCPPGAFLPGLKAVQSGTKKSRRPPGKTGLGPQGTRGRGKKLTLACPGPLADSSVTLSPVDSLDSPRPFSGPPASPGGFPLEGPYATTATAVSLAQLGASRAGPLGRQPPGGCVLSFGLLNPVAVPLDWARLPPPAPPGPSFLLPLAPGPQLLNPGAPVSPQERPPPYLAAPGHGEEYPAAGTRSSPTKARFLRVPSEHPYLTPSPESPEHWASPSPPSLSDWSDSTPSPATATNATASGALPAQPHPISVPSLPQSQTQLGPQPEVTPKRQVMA

Sequence of UniProt P43488 (P43488 whole entry): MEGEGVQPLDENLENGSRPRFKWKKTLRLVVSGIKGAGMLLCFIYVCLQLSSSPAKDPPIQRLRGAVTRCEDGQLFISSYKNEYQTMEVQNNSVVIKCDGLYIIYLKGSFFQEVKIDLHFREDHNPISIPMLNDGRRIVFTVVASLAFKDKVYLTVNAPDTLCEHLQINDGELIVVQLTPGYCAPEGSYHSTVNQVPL
Sequence of UniProt Q9QXX0 (Q9QXX0 34-1218): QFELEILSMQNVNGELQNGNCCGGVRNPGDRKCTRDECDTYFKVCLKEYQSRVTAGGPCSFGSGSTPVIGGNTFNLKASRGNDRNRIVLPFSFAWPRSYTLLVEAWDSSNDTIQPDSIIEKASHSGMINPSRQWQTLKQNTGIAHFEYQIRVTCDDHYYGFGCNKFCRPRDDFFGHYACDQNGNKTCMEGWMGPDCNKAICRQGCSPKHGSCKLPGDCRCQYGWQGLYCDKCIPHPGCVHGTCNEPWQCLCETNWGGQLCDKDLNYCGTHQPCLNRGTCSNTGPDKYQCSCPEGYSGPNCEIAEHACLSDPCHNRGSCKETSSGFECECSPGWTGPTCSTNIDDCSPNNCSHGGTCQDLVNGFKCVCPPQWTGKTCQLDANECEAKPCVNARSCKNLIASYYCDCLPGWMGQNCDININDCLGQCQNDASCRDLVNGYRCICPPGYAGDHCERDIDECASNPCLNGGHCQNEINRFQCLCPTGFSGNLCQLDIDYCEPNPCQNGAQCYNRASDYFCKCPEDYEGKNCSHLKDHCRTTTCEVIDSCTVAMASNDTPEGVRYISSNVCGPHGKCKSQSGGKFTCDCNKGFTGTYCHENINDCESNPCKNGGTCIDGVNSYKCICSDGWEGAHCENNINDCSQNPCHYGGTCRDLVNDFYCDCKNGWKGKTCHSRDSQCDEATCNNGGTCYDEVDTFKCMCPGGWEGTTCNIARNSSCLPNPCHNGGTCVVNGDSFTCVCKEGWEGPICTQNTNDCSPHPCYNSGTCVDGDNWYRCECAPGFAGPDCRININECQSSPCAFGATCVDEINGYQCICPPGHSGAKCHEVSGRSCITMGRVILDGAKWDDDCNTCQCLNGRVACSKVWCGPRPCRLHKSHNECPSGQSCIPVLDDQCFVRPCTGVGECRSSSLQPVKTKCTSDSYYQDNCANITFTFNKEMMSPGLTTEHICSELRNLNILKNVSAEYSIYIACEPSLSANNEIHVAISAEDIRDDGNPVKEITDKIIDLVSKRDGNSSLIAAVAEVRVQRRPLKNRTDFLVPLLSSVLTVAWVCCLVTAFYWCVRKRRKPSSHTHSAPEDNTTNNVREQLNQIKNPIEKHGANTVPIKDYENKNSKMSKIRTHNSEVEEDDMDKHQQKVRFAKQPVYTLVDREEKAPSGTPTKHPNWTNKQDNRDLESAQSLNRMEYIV

Treg proliferation (%) in GM-BMDC/CD4+ T-cell co-culture with anti-OX40L-Hi (13.0% without antibody) [1]: 3.7%
Substance: Blocking antibody to OX40L (AF1236, R&D systems)

Treg proliferation (%) in GM-BMDC/CD4+ T-cell co-culture with anti-Jagged-1-Hi (13.0% without antibody) [2]: 5.3%
Substance: Blocking antibody to Jagged-1 (AF599, R&D systems)

Proliferating Foxp3+ T cells positive for Notch 3 NICD in GM-BMDC/T-cell co-cultures (FACS) [3]: 97%
Substance: Jagged-1 expressed on mouse GM-BMDCs (from UniProt Q9QXX0 34-1218) (ligand)
